Numbering of substitutions follows the chain as printed.

Results on three molecules are retold here after US20030108554A1 (published 2003).

B1: GIP130b (other)
chain: MRSRGSDTEGSAQKKFPRHTKGHSFQGPKNMKHRQQDKDSPSESDVILPCPKAEKPHSGNGHQAEDLSRDDLLFLLSILEGELQARDEVIGILKAEKMDLALLEAQYGFVTPKKVLEALQRDAFQAKSTPWQEDIYEKPMNELDKVVEKHKESYRRILGQLLVAEKSHRQTILELEEEKRKHKEYMEKSDEFICLLEQECERLKKLIDQEIKSQEEKEQEKEKRVTTLKEELTKLKSFALMVVDEQQRLTAQLTLQRQKIQELTTNAKETHTKLALAEARVQEEEQKATRLEKELQTQTTKFHQDQDTIMAKLTNEDSQNRQLQQKLAALSRQIDELEETNRSLRKAEEELQDIKEKISKGEYGNAGIMAEVEELRKRVLDMEGKDEELIKMEEQCRDLNKRLERETLQSKDFKLEVEKLSKRIMALEKLEDAFNKSKQECYSLKCNLEKERMTTKQLSQELESLKVRIKELEAIESRLEKTEFTLKEDLTKLKTLTVMFVDERKTMSEKLKKTEDKLQAASSQLQVEQNKVTTVTEKLIEETKRALKSKTDVEEKMYSVTKERDDLKNKLKAEEEKGNDLLSRVNMLKNRLQSLEAIEKDFLKNKLNQDSGKSTTALHQENNKIKELSQEVERLKLKLKDMKAIEDDLMKTEDEYETLERRYANERDKAQFLSKELEHVKMELAKYKLAEKTETSHEQWLFKRLQEEEAKSGHLSREVDALKEKIHEYMATEDLICHLQGDHSVLQKKLNQQENRNRDLGREIENLTKELERYRHFSKSLRPSLNGRRISDPQVFSKEVQTEAVDNEPPDYKSLIPLERAVINGQLYEESENQDEDPNDEGSVLSFKCSQSTPCPVNRKLWIPWMKSKEGHLQNGKMQTKPNANFVQPGDLVLSHTPGQPLHIKVTPDHVQNTATLEITSPTTESPHSYTSTAVIPNCGTPKQRITILQNASITPVKSKTSTEDLMNLEQGMSPITMATFARAQTPESCGSLTPERTMSPIQVLAVTGSASSPEQGRSPEPTEISAKHAIFRVSPDRQSSWQFQRSNSNSSSVITTEDNKIHIHLGSPYMQAVASPVRPASPSAPLQDNRTQGLINGALNKTTNKVTSSITITPTATPLPRQSQITVSNIYN
notes: Full length; tested as GAL4 domain fusion in yeast two-hybrid
B2: GIP130c (other)
chain: B1 chain with H168R
notes: as for B1
B3: GIP130a (other)
chain: MRSRGSDTEGSAQKKFPRHTKGHSFQGPKNMKHRQQDKDSPSESDVILPCPKAEKPHSGNGHQAEDLSRDDLLFLLSILEGELQARDEVIGILKAEKMDLALLEAQYGFVTPKKVLEALQRDAFQAKSTPWQEDIYEKPMNELDKVVEKHKESYRRILGQLLVAEKSRRQTILELEEEKRKHKEYMEKSDEFICLLEQECERLKKLIDQEIKSQEEKEQEKEKRVTTLKEELTKLKSFALMVVDEQQRLTAQLTLQRQKIQELTTNAKETHTKLALAEARVQEEEQKATRLEKELQTQTTKFHQDQDTIMAKLTNEDSQNRQLQQKLAALSRQIDELEETNRSLRKAEEELQDIKEKISKGEYGNAGIMAEVEELRKRVLDMEGKDEELIKMEEQCRDLNKRLERETLQSKDFKLEVEKLSKRIMALEKLEDAFNKSKQECYSLKCNLEKERMTTKQLSQELESLKVRIKELEAIESRLEKTEFTLKEDLTKLKTLTVMFVDERKTMSEKLKKTEDKLQAASSQLQVEQNKVTTVTEKLIEETKRALKSKTDVEEKMYSVTKERDDLKNKLKAEEEKGNDLLSRVNMLKNRLQSLEAIEKDFLKNKLNQDSGKSTTALHQENNKIKELSQEVERLKLKLKDMKAIEDDLMKTEDEYETLERRYANERDKAQFLSKELEHVKMELAKYKLAEKTETSHEQWLFKRLQEEEAKSGHLSREVDALKEKIHEYMATEDLICHLQGDHSVLQKKLNQQENRNRDLGREIENLTKELERYRHFSKSLRPSLNGRRISDPQVFSKEVQTEAVDNEPPDYKSLIPLERAVINGQLYEESENQDEDPNDEGSVLSFKCSQSTPCPVNRKLWIPWMKSKEGHLQNGKMQTKPNANFVQPGDLVLSHTPGQPLHIKVTPDHVQNTATLEITSPTTESPHSYTSTAVIPNCGTPKQRITILQNASITPVKSKTSTEDLMNLEQGMSPITMATFARAQTPESCGSLTPERTMSPIQVLAVTGSASSPEQGRSPEPTEISAKHAIFRVSPDRQSSWQFQRSNSNSSSVITTEDNKIHIHLGSPYMQAVASPVRPASPSAPLQDNRTQGLINGALNKTTNKVTSSITITPTATPLPRQSQITVEPLLLPH
notes: as for B1

Common to all, as to assay: yeast two-hybrid
The data set “GIP130a” deals with B3.
The data set “GIP130c” addresses B2.
The data set “yeast two-hybrid” deals with the molecule itself.

Regarding B1, the binding result with GIP130a, with GIP130c and in the data set “yeast two-hybrid” was “binds” throughout.
Consider B2, for which the binding result in the data set with GIP130a and in “yeast two-hybrid” was “binds” in each case.
With B3, in “yeast two-hybrid”, the binding result is “binds”.
